Assays:
[1] = Pharmacokinetic analysis in WT BALBc mice (serum, ELISA); assay type: in vivo, mouse
From the text: The pharmacokinetic (PK) properties of lead-labelled DARPin (MAM160, MAM279, MAM282, MAM283) conjugates were investigated in mice, including to determine the terminal half-life (or serum half-life) of these conjugates.
In brief, DARPins MAM279, MAM283, MAM160 and MAM282 were conjugated to the chelator DOTAM, via a C-terminal Cysteine containing tag and a connector, as described in Example 3. The conjugates were then labelled with natural lead (Pb). The protein components of the conjugates corresponded to SEQ ID NOs: 15 to 18, respectively. These lead-labelled DARPin conjugates were injected i.v. at 1 mg/kg into WT BALBc mice. Serum was collected 2 min, 10 min, 30 min, 1 h, 4 h, 24 h, 48 h, and 72 h post-injection. DARPins were detected and measured by ELISA. The data were expressed as the DARPin concentration in serum (nmol/L).
In brief, lead-labelled MAM279 conjugate, as described in Example 13, was injected i. at 0.1 mg/kg or at 1 mg/kg into the tail vein of WT BALBc mice. Serum was collected 2 min, 10 min, 30 min, 1 h, 4 h, 24 h, 48 h, and 72 h post-injection for MAM279 conjugate injected at 1 mg/kg, and 2 min, 30 min, 4 h, 24 h, 30 h, 48 h, 72 h, 96 h, and 168 h post-injection for MAM279 conjugate injected at 0.1 mg/kg. DARPins were detected and measured by ELISA. The data were expressed as the DARPin concentration in serum (nmol/L).
In brief, natural lead-labelled MAM279 conjugate, as described in Example 13, was injected i.v. at different doses (0.001 mg/kg, 0.01 mg/kg, 0.1 mg/kg, or 1 mg/kg) into the tail vein of WT BALBc mice. Similarly, unconjugated Rova was injected iv. at 1 mg/kg into the tail vein of WT BALBc mice. Serum was collected 2 min, 10 min, 30 min, 1 h, 4 h, 24 h, 48 h, and 72 h post-injection for MAM279 conjugate injected at 1 mg/kg, and 2 min, 30 min, 4 h, 24 h, 30 h, 48 h, 72 h, 96 h, and 168 h post-injection for MAM279 conjugate injected at 0.1 mg/kg, 0.01 mg/kg and 0.001 mg/kg. Serum was collected 2 min, 30 min, 4 h, 24 h, 30 h, 48 h, 72 h, 96 h, and 168 h post-injection for Rova antibody injected at 1 mg/kg. DARPins and Rova were detected and measured by ELISA. Rova PK characteristics were calculated with time points between 4 h and 168 h and MAM279 conjugate PK characteristics were calculated with time points between 4 h and 72 h. The data were expressed as the DARPin or Rova concentration in serum (nmol/L). Results are shown in FIGS. 19A and 19B and Table 22.

human serum albumin = human serum albumin (Homo sapiens, UniProt P02768); test: SPR binding to human serum albumin (Example 1); set-up: purchased CSL; settings: immobilized HSA, 1:1 Langmuir, Table 2
Experimental: (§1) Similarly, a SPR assay was used to determine the binding kinetics to human or mouse serum albumin. […] All analytes (3-fold dilution ranging from 1000-12.35 nM) were injected in succession for 240 s (25 μl/min) and dissociation was recorded for 600 s (25 μl/min). […] The obtained SPR traces were used to determine the ankyrin repeat protein-serum albumin interaction parameters, summarized in Table 2.

[2] = Thermal stability by Circular Dichroism (CD) spectroscopy; assay type: physicochemical; settings: CD at 222 nm, 20° C. to 90° C., 2 μM in PBS pH7.4; DARPins with C-terminal Cysteine-containing tag (SEQ ID NOs: 15, 16, 18)
Experimental: Labelling of proteins conjugated to a chelator with a radionuclide may require harsh conditions, including high temperatures. The thermal stability and the propensity to unfold/refold of 2D DARPins MAM279, MAM283 and MAM282 were assessed using Circular Dichroism (CD) spectroscopy.
Samples of the DARPins were diluted to 2 μM in PBS, pH7.4. The assessment was done using a Jasco J-815 spectrophotometer. The Tm (melting temperature) of the selected proteins was determined by CD as a parameter for thermal stability. In brief, the ellipticity was recorded at […] and a temperature range from 20° C. to 90° C. was applied followed by reverse scan to record the refolding behavior. The Tm of the selected ankyrin repeat protein constructs is the midpoint of the protein unfolding. Spectra from 190-250 nm were recorded before and after the temperature scan.

mouse serum albumin = target: T1, mouse serum albumin (Mus musculus, UniProt P07724); test: SPR binding to mouse serum albumin (Example 1); settings: immobilized MSA, 1:1 Langmuir, Table 2
T1 construct: purchased Sigma-Aldrich
T1 sequence (P07724 25-608): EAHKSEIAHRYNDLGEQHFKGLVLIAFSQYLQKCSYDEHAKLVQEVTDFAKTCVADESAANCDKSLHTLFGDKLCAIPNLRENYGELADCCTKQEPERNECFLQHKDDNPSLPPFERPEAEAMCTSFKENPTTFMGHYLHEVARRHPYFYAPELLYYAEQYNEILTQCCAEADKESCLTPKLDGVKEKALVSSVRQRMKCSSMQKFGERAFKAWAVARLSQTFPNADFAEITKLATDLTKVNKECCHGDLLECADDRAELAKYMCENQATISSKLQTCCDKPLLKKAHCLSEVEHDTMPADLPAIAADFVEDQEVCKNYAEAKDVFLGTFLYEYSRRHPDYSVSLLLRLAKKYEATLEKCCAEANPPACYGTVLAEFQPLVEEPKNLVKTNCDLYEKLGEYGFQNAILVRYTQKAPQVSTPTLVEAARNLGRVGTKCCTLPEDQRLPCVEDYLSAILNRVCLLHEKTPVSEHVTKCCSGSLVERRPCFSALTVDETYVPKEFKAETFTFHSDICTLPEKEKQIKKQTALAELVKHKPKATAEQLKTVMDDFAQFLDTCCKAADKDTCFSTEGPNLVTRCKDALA
Experimental: as §1

[3] = 1 mg/kg i.v., MAM279 natural lead-labelled conjugate (time points 4-72 h), Rova unconjugated (4-168 h), Table 22
[4] = 1 mg/kg i.v., MAM279 natural lead-labelled conjugate, Rova unconjugated, Table 22
[5] = natural lead-labelled DOTAM conjugate 0.1 mg/kg i.v., Table 17
[6] = natural lead-labelled DOTAM conjugate 1 mg/kg i.v., Tables 16, 17
[7] = natural lead-labelled conjugate 0.001 mg/kg i.v., Table 22
[8] = natural lead-labelled conjugate 0.01 mg/kg i.v., Table 22
[9] = natural lead-labelled conjugate 0.1 mg/kg i.v., Table 22

B1: MAM279 conjugate: SEQ ID NO: 15 conjugated to DOTAM-maleimide, labelled with Pb-212 (natural lead in PK studies) (conjugate)
chain: GSDLGKKLLEAARAGQDDEVRELLKAGADVNAKDYFSHTPLHLAARNGHLKIVEVLLKAGADVNAKDFAGKTPLHLAADAGHLEIVEVLLKAGADVNAQDIFGKTPADIAADAGHEDIAEVLQKAAGSPTPTPTTPTPTPTTPTPTPTGSDLGKKLLAAAAQGQDDEVRELLKAGANVNAKDLFGYTPLHLAAWRGHLEIVEVLLKAGADVNAKDAAGETPLHLAAWFGHLEIVEVLLKAGADVNAQDLQGKTPADLAAKEGHEDIAEVLQKAAGSGSC
modifications: DOTAM-maleimide, Pb-212 label; Ankyrin repeat protein with tag (GS-MAM279-tag)
B1 showed a serum half-life ([1]; 0.001 mg/kg i.v.) of 39.9 h, a serum half-life ([1]; 0.01 mg/kg i.v.) of 33.1 h and a serum half-life ([1]; 0.1 mg/kg i.v.) of 32.8 h. It also gave a serum half-life ([1]; 1 mg/kg i.v.) of 30.5 h.

B2: MAM279: Two domain (2D) ankyrin repeat protein: serum albumin-specific domain (SEQ ID NO: 7), PT linker, DLL3-specific domain of MAM093 (protein)
chain: DLGKKLLEAARAGQDDEVRELLKAGADVNAKDYFSHTPLHLAARNGHLKIVEVLLKAGADVNAKDFAGKTPLHLAADAGHLEIVEVLLKAGADVNAQDIFGKTPADIAADAGHEDIAEVLQKAAGSPTPTPTTPTPTPTTPTPTPTGSDLGKKLLAAAAQGQDDEVRELLKAGANVNAKDLFGYTPLHLAAWRGHLEIVEVLLKAGADVNAKDAAGETPLHLAAWFGHLEIVEVLLKAGADVNAQDLQGKTPADLAAKEGHEDIAEVLQKAA
modifications: Ankyrin repeat protein (MAM279)
In the case of B2, the Kd (human serum albumin) is reported as 75 nM, the “Koff HSA” value (human serum albumin) is reported as 0.00923 s⁻¹ and the “Kon HSA” value (human serum albumin) is reported as 123000 M⁻¹ s⁻¹. For the same molecule, the AUCINF_pre [1, 3] was 29383.7 nmol·h/L, the AUClast [1, 3] was 23892.0 h*hr*nmol/L and the HL_Lambda_z [1, 3] was 30.5 h. For the same molecule, the AUC_%Back_Ext_pre [1, 4] was 0%, the AUC_%Extrap_Pred [1, 4] was 19% and the Cl_pred [1, 4] was 1.2 mL/h/kg. For the same molecule, the Cmax [1, 4] was 1330 nM, the Tmax [1, 4] was 1.98 min and the Vss_pred [1, 4] was 0.048 L/kg. The AUCINF_pred [1, 5] was 2.4051 µM·h, the “AUC_% Back_Ext_pred” value [1, 5] was 0% and the “AUC_% Extrap_pred” value [1, 5] was 3%. It also gave an AUClast [1, 5] of 2343.4 nmol·h/L, a CI_pred [1, 5] of 1.4 mL/h/kg and a Cmax [1, 5] of 88.3 nM. The HL_Lambda_z [1, 5] was 32.8 h, the Tmax [1, 5] was 1.98 min and the Vss_pred [1, 5] was 0.066 L/kg. For the same molecule, the AUCINF_pred [1, 6] was 29.3837 µM·h, the “AUC_% Back_Ext_pred” value [1, 6] was 0% and the “AUC_% Extrap_pred” value [1, 6] was 19%. It also gave an AUClast [1, 6] of 23892.0 nmol·h/L, a CI_pred [1, 6] of 1.2 mL/h/kg and a Cmax [1, 6] of 1330 nM. For the same molecule, the HL_Lambda_z [1, 6] was 30.5 h, the Tmax [1, 6] was 1.98 min and the Vss_pred [1, 6] was 0.048 L/kg. The AUCINF_pre [1, 7] was 7.0 nmol·h/L, the AUC_%Back_Ext_pre [1, 7] was 0% and the AUC_%Extrap_Pred [1, 7] was 28%. The AUClast [1, 7] was 5.0 h*hr*nmol/L, the Cl_pred [1, 7] was 4.9 mL/h/kg and the Cmax [1, 7] was 0.29 nM. The HL_Lambda_z [1, 7] was 39.9 h, the Tmax [1, 7] was 1.98 min and the Vss_pred [1, 7] was 0.267 L/kg. For the same molecule, the AUCINF_pre [1, 8] was 101.0 nmol·h/L, the AUC_%Back_Ext_pre [1, 8] was 0% and the AUC_%Extrap_Pred [1, 8] was 3%. It also gave an AUClast [1, 8] of 98.3 h*hr*nmol/L, a Cl_pred [1, 8] of 3.4 mL/h/kg and a Cmax [1, 8] of 3.7 nM. The HL_Lambda_z [1, 8] was 33.1 h, the Tmax [1, 8] was 1.98 min and the Vss_pred [1, 8] was 0.157 L/kg. For the same molecule, the AUCINF_pre [1, 9] was 2405.1 nmol·h/L, the AUC_%Back_Ext_pre [1, 9] was 0% and the AUC_%Extrap_Pred [1, 9] was 3%. For the same molecule, the AUClast [1, 9] was 2343.4 h*hr*nmol/L, the Cl_pred [1, 9] was 1.4 mL/h/kg and the Cmax [1, 9] was 88.3 nM. The HL_Lambda_z [1, 9] was 32.8 h, the Tmax [1, 9] was 1.98 min and the Vss_pred [1, 9] was 0.066 L/kg. The “melting temperature (Tm)” value [2] was “above 85 °C”, the Kd (mouse serum albumin) was 367 nM and the “Koff MSA” value (mouse serum albumin) was 0.0335 s⁻¹. For the same molecule, the “Kon MSA” value (mouse serum albumin) was 91240 M⁻¹ s⁻¹.

B3: Rova: Rova antibody, DLL3-binding benchmark antibody used as positive control and comparison (antibody, chains of the INN, looked up, V domains shown)
VH: QVQLVQSGAEVKKPGASVKVSCKASGYTFTNYGMNWVRQAPGQGLEWMGWINTYTGEPTYADDFKGRVTMTTDTSTSTAYMELRSLRSDDTAVYYCARIGDSSPSDYWGQGTLVTVSS
VL: EIVMTQSPATLSVSPGERATLSCKASQSVSNDVVWYQQKPGQAPRLLIYYASNRYTGIPARFSGSGSGTEFTLTISSLQSEDFAVYYCQQDYTSPWTFGQGTKLEIK
For B3, the serum half-life ([1]; 1 mg/kg i.v.) was “about 145 hours”, the AUCINF_pre [1, 3] was 11918.3 nmol·h/L and the AUClast [1, 3] was 6636.1 h*hr*nmol/L. For the same molecule, the HL_Lambda_z [1, 3] was 145.8 h, the AUC_%Back_Ext_pre [1, 4] was 0% and the AUC_%Extrap_Pred [1, 4] was 44%. The Cl_pred [1, 4] was 0.6 mL/h/kg, the Cmax [1, 4] was 130 nM and the Tmax [1, 4] was 1.98 min. The Vss_pred [1, 4] was 0.12 L/kg.

B4: MAM160: Two domain (2D) ankyrin repeat protein: serum albumin-specific domain (SEQ ID NO: 7), PT linker, DLL3-specific domain MAM120 (protein)
chain: DLGKKLLEAARAGQDDEVRELLKAGADVNAKDYFSHTPLHLAARNGHLKIVEVLLKAGADVNAKDFAGKTPLHLAADAGHLEIVEVLLKAGADVNAQDIFGKTPADIAADAGHEDIAEVLQKAAGSPTPTPTTPTPTPTTPTPTPTGSDLGTKLLSAAADGQDDEVRELLQAGADVNAKDLFGYTPLHLAAWRGHLEIVEVLLEAGADVNAKDAAGLTPLHLAAWFGHLEIVEVLLEAGADVNAQDVQGVTPADLAAKEGHEDIAEVLQQAA
modifications: Ankyrin repeat protein (MAM160)
For B4, the Kd (human serum albumin) was 95.9 nM, the “Koff HSA” value (human serum albumin) was 0.0105 s⁻¹ and the “Kon HSA” value (human serum albumin) was 110000 M⁻¹ s⁻¹. The AUCINF_pred [1, 6] was 4.5873 µM·h, the “AUC_% Back_Ext_pred” value [1, 6] was 1% and the “AUC_% Extrap_pred” value [1, 6] was 0%. The AUClast [1, 6] was 4578.7 nmol·h/L, the CI_pred [1, 6] was 7.4 mL/h/kg and the Cmax [1, 6] was 625 nM. For the same molecule, the HL_Lambda_z [1, 6] was 8.3 h, the Tmax [1, 6] was 1.98 min and the Vss_pred [1, 6] was 0.060 L/kg. The Kd (mouse serum albumin) was 336 nM, the “Koff MSA” value (mouse serum albumin) was 0.0271 s⁻¹ and the “Kon MSA” value (mouse serum albumin) was 80430 M⁻¹ s⁻¹.

From patent US20250332297A1, “DLL3-SPECIFIC BINDING CONSTRUCTS AND THEIR USE IN RADIOTHERAPY” (MOLECULAR PARTNERS AG, priority 2024, published 2025)
